Experimental data as given in US20110212162A1 (SANFORD BURNHAM MEDICAL RESEARCH INSTITUTE, published 2011).

Biological target: T1, chemokine receptor CXCR4, expressed on transfected 293T cells (UniProt P61073 1-352, limits assumed)
T1 construct: whole, on cells; also called CXCR4 receptor
Assay: phage binding to transfected 293T cells; bound phage rescued and titrated
Method: Briefly, plasmid (10 μg) was mixed with 900 μl of serumfree DMEM and 50 μl of FuGene and incubated for 15 min at room temperature before adding the mixture to the cells. The cells were detached using EDTA after 48 hrs post transfection and washed with PBS containing 1% BSA. Phage (5×10⁹ pfu) were incubated with the transfected cells and bound phage were rescued and titrated. For competitive binding assay, the cognate peptide (150 μg/ml) or antibody (50 μg/ml) was added during incubating of the phage with cells. Targeted proapoptotic peptide treatment of tumor-bearing mice Prostate cancer model. Orthotopic xenografted prostate tumors were established by injecting 1×10⁶ PPC1 human prostate cancer cells into the mouse prostate. Fifteen days post inoculation, the mice were intravenously injected with D(KLAKLAK)₂-[…] (SEQ ID NO:41), an equimolar mixture of D(KLAKLAK)₂ (SEQ ID NO:19) and […] (SEQ ID NO:6), or PBS. Biweekly injections of 100 μg/dose/mouse were given for three weeks. Melanoma model. Nude BALB/c mice were subcutaneously injected with 1×10⁶ C8161 human melanoma cells. Treatment started when mean tumor volumes reached about 100 mm3. Mice with size-matched tumors were randomized into three groups. […] The mice were monitored for weight loss, and tumors were dissected and weighed at the termination of the experiment. […]

T1 sequence (P61073 whole entry): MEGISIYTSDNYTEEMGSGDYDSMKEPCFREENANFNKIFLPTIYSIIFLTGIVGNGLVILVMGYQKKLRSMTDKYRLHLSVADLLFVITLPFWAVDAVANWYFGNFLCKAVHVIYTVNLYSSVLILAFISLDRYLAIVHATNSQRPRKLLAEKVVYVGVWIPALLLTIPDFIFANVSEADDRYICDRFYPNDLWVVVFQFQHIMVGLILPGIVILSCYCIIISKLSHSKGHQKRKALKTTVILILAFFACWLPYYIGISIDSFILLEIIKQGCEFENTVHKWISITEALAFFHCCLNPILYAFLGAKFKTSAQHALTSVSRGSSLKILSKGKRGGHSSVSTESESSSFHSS

B1: LyP-1 phage (T7 phage displaying the peptide CGNKRTRGC, SEQ ID NO:16) (peptide)
peptide: CGNKRTRGC
binding result: no binding (tested: 5x10^9 pfu phage)
